Positions count from the first letter of the chain named. In names and notes the source's numbering stands. Entries after “also recorded” stand apart in the source; their conditions may differ. Ends that are not written are not given here.
Legend:
[1] = molecular target: T1, Alexa 488-T70C-b5:P450 17A1 complex (Homo sapiens, UniProt P00167+P05093, T70C); experiment: Peptide addition to Alexa 488-T70C-b5:P450 17A1 complex (gain of fluorescence); type: binding; conditions: even at a concentration of 160 μM; data not presented
T1 construct: made in house; host or cells: Escherichia coli (P450 17A1 in JM109; T70C-b5 plasmid in DH5α)
T1 sequence (P00167 whole entry T70C, one chain of several): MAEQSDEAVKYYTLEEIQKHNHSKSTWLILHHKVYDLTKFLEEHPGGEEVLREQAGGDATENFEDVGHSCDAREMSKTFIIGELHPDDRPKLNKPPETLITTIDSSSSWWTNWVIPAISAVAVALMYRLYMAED
Source text: Peptides were obtained corresponding to the putative binding sites of P450 17A1 and b5 (see Experimental procedures section and Fig. S7).

[2] = molecular target: T2, P450 17A1 (Homo sapiens, UniProt P05093); experiment: Inhibition of reconstituted P450 17A1 steroid oxidation reactions by peptides; type: biochemical
T2 construct: made in house; host or cells: Escherichia coli (P450 17A1 in JM109)
T2 sequence (P00167 whole entry partner, one chain of several): as the sequence (P00167 whole entry T70C, one chain of several) above, with C70T counted along it
Source text: The “b5 peptide” corresponds to residues 43 to 52 of b5, and the “17A1 peptide” corresponds to residues 347 to 358 of P450 17A1 (see Experimental procedures section and Fig. S7).

[3] = molecular target: P450cam (Pseudomonas putida) (UniProt P00183); experiment: fluorescence titration; conditions: cited from earlier work
Chain of P450cam (Pseudomonas putida) (P00183 2-415): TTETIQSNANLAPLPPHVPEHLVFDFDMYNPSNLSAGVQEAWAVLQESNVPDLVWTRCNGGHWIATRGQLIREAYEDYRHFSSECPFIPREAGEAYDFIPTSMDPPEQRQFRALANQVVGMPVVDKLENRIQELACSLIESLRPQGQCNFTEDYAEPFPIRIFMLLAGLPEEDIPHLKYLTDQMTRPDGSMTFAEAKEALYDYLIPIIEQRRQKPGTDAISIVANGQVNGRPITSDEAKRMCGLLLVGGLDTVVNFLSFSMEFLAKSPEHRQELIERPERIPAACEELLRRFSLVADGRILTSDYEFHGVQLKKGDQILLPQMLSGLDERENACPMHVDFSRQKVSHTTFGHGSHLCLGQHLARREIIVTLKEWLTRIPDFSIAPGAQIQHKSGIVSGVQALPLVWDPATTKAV

[4] = molecular target: cytochrome c (UniProt P99999); experiment: fluorescence titration; conditions: cited from earlier work
Chain of cytochrome c (P99999 2-105): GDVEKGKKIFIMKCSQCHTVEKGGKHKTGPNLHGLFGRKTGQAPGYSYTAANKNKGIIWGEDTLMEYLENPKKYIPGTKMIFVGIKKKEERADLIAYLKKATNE

[5] = molecular target: metmyoglobin (UniProt P02144); experiment: fluorescence titration; conditions: cited from earlier work
Chain of metmyoglobin (P02144 2-154): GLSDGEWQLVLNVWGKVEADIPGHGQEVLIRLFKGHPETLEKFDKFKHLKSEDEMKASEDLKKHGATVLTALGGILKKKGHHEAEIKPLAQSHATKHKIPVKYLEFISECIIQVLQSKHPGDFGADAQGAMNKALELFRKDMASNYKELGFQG

[6] = substrate: CC(=O)C1CCC2C3CC=C4C[C@@H](O)CC[C@]4(C)C3CC[C@]12C; experiment: purified protein, by the assay type; conditions: other: 17α-hydroxylation, pH 7.4, 30.0 °C
[7] = substrate: CC(=O)[C@@]1(O)CCC2C3CC=C4C[C@@H](O)CC[C@]4(C)C3CC[C@@]21C; experiment: purified protein, by the assay type; conditions: other: lyase reaction (conversion to androstenedione or DHEA), pH 7.4, 30.0 °C
[8] = substrate: CC(=O)[C@H]1CC[C@H]2[C@@H]3CCC4=CC(=O)CC[C@]4(C)[C@H]3CC[C@]12C; experiment: purified protein, by the assay type; conditions: other: 17α-hydroxylation, pH 7.4, 30.0 °C
[9] = molecular target: T3, WT P450 17A1 (human, UniProt P05093 1-508); experiment: other fluorescence titration; as a1, with pregnenolone present at 10 μM; conditions: both partners purified
T3 construct: cytochrome P450 17A1, human; approximate Mr 57 kDa; also called cytochrome P450 17A1; CYP17A1; source: E. coli JM109 (pCW vector), purified (Ni2+-NTA)
T3 sequence (looked up): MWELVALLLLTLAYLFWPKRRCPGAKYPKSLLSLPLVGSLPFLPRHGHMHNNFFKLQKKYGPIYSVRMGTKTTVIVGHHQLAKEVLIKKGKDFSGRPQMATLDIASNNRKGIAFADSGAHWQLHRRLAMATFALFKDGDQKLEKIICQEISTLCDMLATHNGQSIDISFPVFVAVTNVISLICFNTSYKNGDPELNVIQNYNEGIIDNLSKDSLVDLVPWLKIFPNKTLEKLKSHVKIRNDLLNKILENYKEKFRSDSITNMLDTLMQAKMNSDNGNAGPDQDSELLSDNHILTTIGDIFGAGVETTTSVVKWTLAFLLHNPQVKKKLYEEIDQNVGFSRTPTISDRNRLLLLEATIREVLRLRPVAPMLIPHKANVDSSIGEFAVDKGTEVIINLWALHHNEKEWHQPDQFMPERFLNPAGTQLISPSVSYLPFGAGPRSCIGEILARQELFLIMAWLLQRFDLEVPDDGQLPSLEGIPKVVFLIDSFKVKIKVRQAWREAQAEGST

[10] = molecular target: T3, WT P450 17A1; experiment: other fluorescence titration; as a1, with progesterone present at 10 μM; conditions: both partners purified
[11] = molecular target: T3, WT P450 17A1; experiment: other fluorescence titration; as a1, with 17-OH pregnenolone present at 10 μM; conditions: both partners purified
[12] = molecular target: T3, WT P450 17A1; experiment: other fluorescence titration; as a1, with 17-OH progesterone present at 10 μM; conditions: both partners purified
[13] = molecular target: T3, WT P450 17A1; experiment: stopped-flow fluorescence; dissociation: preformed Alexa 488-T70C-b5:P450 17A1 complex mixed with 30 μM unlabeled b5; excitation 488 nm, emission >530 nm, single exponential; conditions: both partners purified
[14] = molecular target: T3, WT P450 17A1; experiment: other fluorescence titration; 50 nM Alexa 488-T70C-b5 in 100 mM potassium phosphate pH 7.4 titrated with P450 17A1 (WT or variant); excitation 480 nm, emission 513 nm; quadratic fit; no substrate; no phospholipid vesicles; apparent Kd; conditions: both partners purified
[15] = molecular target: T4, WT P450 17A1 (Homo sapiens, UniProt P05093); type: biochemical; parameters: made in house; host or cells: Escherichia coli (P450 17A1 in JM109)
T4 sequence (P05093 1-508): T3 sequence (looked up)
Experimental: Figure S4. Stimulation of lyase activities by b5, T70C- b5, and NanoTemper Blue-T70C-b5. Catalytic assays for the lyase reactions were performed and analyzed as described in the main text.

EHPGGEEVLRE [b5 peptide, E H P G G E E V L R E]
gain of fluorescence of Alexa 488-T70C-b5:P450 17A1 complex [1]: did not result in a gain of fluorescence

RNRLLLLEATIR [P450 peptide, R N R L L L L E A T I R]
inhibition of progesterone 17α-hydroxylation [2]: only at the very highest concentration
inhibition of lyase reaction (17α-OH pregnenolone) ([2]; b5 present at 10-fold higher concentration than P450, listed as P450 17A1 peptide): more inhibitory to the lyase reaction (17α-OH pregnenolone) than the b5 peptide; also recorded: weak inhibition

cytochrome b5 (T65C labeled) (from UniProt P00173)
Kd [3]: 1000 nM
Kd [4]: 1000 nM
Kd [5]: 1000 nM

B1: WT P450 17A1 (Homo sapiens) (protein)
chain: T3 sequence (looked up)
Km ([6]; WT): 0.47 ± 0.20 µM
kcat ([6]; WT): 0.0147 ± 0.000833 s⁻¹
kcat/Km ([6]; WT): 31700 M⁻¹ s⁻¹
Km ([7]; WT): 6.7 ± 2.1 µM
kcat ([7]; WT): 0.0917 s⁻¹
kcat/Km ([7]; WT): 13800 M⁻¹ s⁻¹
Km ([8]; WT): 7.8 ± 1.4 µM
kcat ([8]; WT): 0.107 ± 0.00833 s⁻¹
kcat/Km ([8]; WT): 13700 M⁻¹ s⁻¹

B2: P450 17A1 R358Q variant (Homo sapiens; R358Q) (protein)
chain: T3 sequence (looked up) with R358Q
Km ([6]; R358Q): 2.6 ± 1.4 µM
kcat ([6]; R358Q): 0.00967 ± 0.0015 s⁻¹
kcat/Km ([6]; R358Q): 3670 M⁻¹ s⁻¹
Km ([7]; R358Q): 10 ± 5 µM
kcat ([7]; R358Q): 0.000933 s⁻¹
kcat/Km ([7]; R358Q): 83.3 M⁻¹ s⁻¹
Km ([8]; R358Q): 4.6 ± 0.7 µM
kcat ([8]; R358Q): 0.00717 ± 0.000333 s⁻¹

B3: P450 17A1 E305G variant (Homo sapiens; E305G) (protein)
chain: T3 sequence (looked up) with E305G
Km ([6]; E305G): 5.7 ± 4.6 µM
kcat ([6]; E305G): 0.00117 ± 0.000333 s⁻¹
kcat/Km ([6]; E305G): 167 M⁻¹ s⁻¹
Km ([7]; E305G): 9.4 ± 3.7 µM
kcat ([7]; E305G): 0.000933 s⁻¹
kcat/Km ([7]; E305G): 100 M⁻¹ s⁻¹
Km ([8]; E305G): 3.1 ± 0.4 µM
kcat ([8]; E305G): 0.00317 ± 0.000167 s⁻¹
kcat/Km ([8]; E305G): 1000 M⁻¹ s⁻¹

B4: P450 17A1 R347H variant (Homo sapiens; R347H) (protein)
chain: T3 sequence (looked up) with R347H
Km ([6]; R347H): 1.5 ± 0.5 µM
kcat ([6]; R347H): 0.00883 ± 0.000667 s⁻¹
kcat/Km ([6]; R347H): 5830 M⁻¹ s⁻¹
Km ([7]; R347H): 4.8 ± 1.7 µM
kcat ([7]; R347H): 0.000717 s⁻¹
kcat/Km ([7]; R347H): 150 M⁻¹ s⁻¹
Km ([8]; R347H): 8.1 ± 2.2 µM
kcat ([8]; R347H): 0.003 ± 0.000333 s⁻¹
kcat/Km ([8]; R347H): 333 M⁻¹ s⁻¹

B5: Alexa 488-T70C-b5 (natural protein, human)
chain: MAEQSDEAVKYYTLEEIQKHNHSKSTWLILHHKVYDLTKFLEEHPGGEEVLREQAGGDATENFEDVGHSCDAREMSKTFIIGELHPDDRPKLNKPPETLITTIDSSSS
modifications: Alexa Fluor 488 maleimide conjugated to the cysteine of T70C; extent of modification 74%
notes: cytochrome b5 (CYB5A, b5), human, T70C; printed theoretical mass 16.9 kDa; Heme protein; also called labeled b5; fluorescently labeled variant of human b5
Kd [9]: 12 ± 5 nM
Kd [10]: 5.8 ± 2.3 nM
Kd [11]: 2.2 ± 1 nM
Kd [12]: 6 ± 1 nM
koff [13]: 1.9 ± 0.2 s⁻¹
Kd [14]: 2.5 ± 0.6 nM

B6: Blue-T70C-b5: T70C-b5 labeled with the proprietary NanoTemper BLUE fluorescent dye (protein, UniProt P00167 2-134, looked up, variant T70C)
Cytochrome b5: AEQSDEAVKYYTLEEIQKHNHSKSTWLILHHKVYDLTKFLEEHPGGEEVLREQAGGDATENFEDVGHSCDAREMSKTFIIGELHPDDRPKLNKPPETLITTIDSSSSWWTNWVIPAISAVAVALMYRLYMAED
modifications: NanoTemper BLUE fluorescent dye label
stimulation of lyase activities [15]: stimulated the lyase reactions
